Bounds are passed on as bounds.

Here are results for three molecules from US20240262926A1 (published 2024).

The target in test [1] is human TrkB (GenBank Acc. No. NP_001018074.1) expressed in CHO cells (human, UniProt Q16620 32-822). The experiment in a line: cell-based or functional assay.
In test [2] the target is T1, recombinant monkey TfR (r monkey TfR: Sino Biological Inc.) (cynomolgus monkey (Macaca fascicularis), UniProt Q5RDH6 89-760 (Pongo abelii entry)).
T1 construct: Bought product; also called r monkey TfR-ECD (Histag); cynomolgus monkey TfR; not shown: histidine tag attached to the N-terminus
T1 chain: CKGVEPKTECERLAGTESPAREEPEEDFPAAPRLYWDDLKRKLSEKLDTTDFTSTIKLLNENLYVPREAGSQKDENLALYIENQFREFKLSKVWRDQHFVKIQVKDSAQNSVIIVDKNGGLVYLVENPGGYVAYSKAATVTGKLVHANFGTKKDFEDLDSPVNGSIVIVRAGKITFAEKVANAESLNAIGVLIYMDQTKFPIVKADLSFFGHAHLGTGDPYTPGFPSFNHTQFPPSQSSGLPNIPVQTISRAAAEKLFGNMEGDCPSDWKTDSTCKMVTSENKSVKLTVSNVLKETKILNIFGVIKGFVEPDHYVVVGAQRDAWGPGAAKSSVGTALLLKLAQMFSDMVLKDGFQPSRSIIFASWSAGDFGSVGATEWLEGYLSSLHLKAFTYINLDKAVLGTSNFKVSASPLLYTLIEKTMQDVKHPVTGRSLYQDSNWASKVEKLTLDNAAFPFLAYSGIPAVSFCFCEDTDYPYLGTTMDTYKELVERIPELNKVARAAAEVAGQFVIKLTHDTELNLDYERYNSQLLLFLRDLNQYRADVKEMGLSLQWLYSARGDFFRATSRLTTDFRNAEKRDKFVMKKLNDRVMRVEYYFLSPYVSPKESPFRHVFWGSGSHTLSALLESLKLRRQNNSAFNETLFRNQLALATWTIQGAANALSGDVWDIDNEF
The experiment in a line: ELISA, plate-coated recombinant TfR, detection with biotin-labeled anti-BDNF antibody and streptavidin-HRP. On the procedure: (§1) The affinity of the hBDNF-anti-hTfR antibody fusion protein to hTfR was measured using an ELISA method. The measurement by the ELISA method was generally carried out by the following method. As human TfR, recombinant human TfR (r human TfR: Sino Biological Inc.) having the amino acid sequence of the extracellular region of hTfR, ranging from the cysteine residue at the position 89th from the N-terminal side to the phenylalanine at the C-terminus in the amino acid sequence set forth as SEQ ID NO:1, to the N-terminus of which a histidine tag was added, was used. As monkey TfR, recombinant monkey TfR (r monkey TfR: Sino Biological Inc.) having the amino acid sequence of the extracellular region of cynomolgus monkey hTfR, ranging from the cysteine residue at the position 89th from the N-terminal side to the phenylalanine at the C-terminus in the amino acid sequence set forth as SEQ ID NO:2, to the N-terminus of which a histidine tag was added, was used. The measurement was carried out on the hBDNF-anti-hTfR antibodies 3, 4 and 6 among the hBDNF-humanized anti-hTfR antibody fusion proteins obtained in Example 17.
(§2) Recombinant human and monkey TfR (Sino Biological Inc.) were each diluted to 0.5 μg/mL, and the diluted solution was then added in an amount of 100 μL to each well of a 96-well plate (Nunc Inc), followed by leaving it to stand for 1 hour. […]
A general note: ELISA stands for enzyme-linked immunosorbent assay.

Test [3] deals with T2, recombinant human TfR (r human TfR: Sino Biological Inc.) (human, UniProt P02786 89-760).
T2 construct: Bought product; also called r human TfR-ECD (Histag); hTfR; not shown: histidine tag attached to the N-terminus
The test is described as above. How it is done:
as §1, §2

The target of test [4] is T1, recombinant monkey TfR (r monkey TfR: …). The experiment in a line: BLI (Octet RED96), method of Example 7, His-tagged TfR ECD on Ni-NTA sensor. On the procedure:
(§3) Each of the antibodies (anti-hTfR antibody Nos. 1 to 14) purified above was subjected to 2-fold dilution steps with HBS-P+(10 mM HEPES containing 150 mM NaCl, 50 μM EDTA and 0.05% Surfactant P20) to prepare antibody solutions of 7 different concentrations, 0.78125 to 50 nM (0.117 to 7.5 μg/mL). These antibody solutions were used as the sample solutions. The r human and r monkey TfRs were respectively diluted with HBS-P+ to prepare 25 μg/mL solutions, which were used as r human TfR-ECD (Histag) solution and r monkey TfR-ECD (Histag) solution, respectively.
(§4) Each of the sample solutions prepared above by 2-fold dilution steps was added, 200 μL/well, to a 96-well plate, black (Greiner Bio-One Inc.). Each of the r human TfR-ECD (Histag) solution and the r monkey TfR-ECD (Histag) solutions prepared above was added, 200 μL/well, to predetermined wells. To respective wells for baseline, dissociation and washing were added HBS-P+, 200 μL/well. To wells for regeneration were added 10 mM Glycine-HCl, pH 1.7, 200 μL/well. To wells for activation was added 0.5 mM NiCl₂ solution, 200 μL/well. The plate and biosensor (Biosensor/Ni-NTA: ForteBio Inc., a division of Pall Corporation) were set in the prescribed positions of Octet RED96. […] The measurement was performed at 25 to 30° C.
(§5) The affinity of the humanized anti-hTfR antibodies obtained in Example 13 to human and monkey TfRs was measured by the method described in Example 7.
In general terms: Biolayer interferometry detects binding as a change in optical thickness at a sensor tip.

In test [5] the target is T2, recombinant human TfR (r human TfR: …). The test is described as above. On the procedure:
as §3, §4, §5

The target in test [6] is T1, recombinant monkey TfR (r monkey TfR: …). The test can be described thus: ELISA on plate-coated recombinant TfR ('the present measurement method' of Example 18-2).
Test [7] concerns the target T2, recombinant human TfR (r human TfR: …). The test is described as above.

human TrkB (GenBank Acc. No. NP_001018074.1) expressed in CHO cells, sequence (Q16620 32-822): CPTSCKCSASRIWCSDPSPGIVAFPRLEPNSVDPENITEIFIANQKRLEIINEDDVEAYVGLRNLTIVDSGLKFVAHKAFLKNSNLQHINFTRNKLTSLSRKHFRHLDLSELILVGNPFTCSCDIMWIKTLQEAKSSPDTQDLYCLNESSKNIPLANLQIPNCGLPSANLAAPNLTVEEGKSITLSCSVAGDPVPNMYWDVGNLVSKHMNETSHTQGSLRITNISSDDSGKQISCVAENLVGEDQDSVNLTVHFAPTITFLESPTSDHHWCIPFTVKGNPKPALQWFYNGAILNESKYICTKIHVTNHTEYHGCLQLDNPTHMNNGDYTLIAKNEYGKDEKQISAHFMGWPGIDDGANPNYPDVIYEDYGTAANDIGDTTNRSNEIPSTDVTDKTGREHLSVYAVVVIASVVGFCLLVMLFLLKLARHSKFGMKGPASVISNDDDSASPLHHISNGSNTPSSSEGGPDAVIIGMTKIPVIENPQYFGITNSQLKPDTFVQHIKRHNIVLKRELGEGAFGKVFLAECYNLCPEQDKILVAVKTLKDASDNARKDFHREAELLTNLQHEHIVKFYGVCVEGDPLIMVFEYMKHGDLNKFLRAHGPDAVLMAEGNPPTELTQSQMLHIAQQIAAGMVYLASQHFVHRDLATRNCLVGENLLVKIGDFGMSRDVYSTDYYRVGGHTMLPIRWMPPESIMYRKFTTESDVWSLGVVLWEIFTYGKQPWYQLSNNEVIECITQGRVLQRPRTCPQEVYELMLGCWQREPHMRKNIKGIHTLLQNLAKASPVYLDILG

B1: hBDNF-anti-hTfR antibody 6 (other)
heavy: HSDPARRGELSVCDSISEWVTAADKKTAVDMSGGTVTVLEKVPVSKGQLKQYFYETKCNPMGYTKEGCRGIDKRHWNSQCRTTQSYVRALTMDSKKRIGWRFIRIDTSCVCTLTIKRGRGSGGGGSGGGGSGGGGSGGGGSGGGGSEVQLVQSGAEVKKPGESLKISCKGSGYSFTNYWLGWVRQMPGKGLEWMGDIYPGGDYPTYSEKFKVQVTISADKSISTAYLQWSSLKASDTAMYYCARSGNYDEVAYWGQGTLVTVSSASTKGPSVFPLAPSSKSTSGGTAALGCLVKDYFPEPVTVSWNSGALTSGVHTFPAVLQSSGLYSLSSVVTVPSSSLGTQTYICNVNHKPSNTKVDKKVEPKSCDKTHT
light: DIVMTQTPLSLSVTPGQPASISCRSSQSLVHSNGNTYLHWYLQKPGQSPQLLIYKVSNRFSGVPDRFSGSGSGTDFTLKISRVEAEDVGVYYCSQSTHVPWTFGQGTKVEIKRTVAAPSVFIFPPSDEQLKSGTASVVCLLNNFYPREAKVQWKVDNALQSGNSQESVTEQDSKDSTYSLSSTLTLSKADYEKHKVYACEVTHQGLSSPVTKSFNRGEC
notes: also called fusion protein of hBDNF and humanized anti-hTfR antibody Fab; product of pE-neo (BDNF-Fab HC-1) and pE-hygr (LC3)
In the case of B1, in test [1], the “BDNF activity (TrkB agonistic EC50, nmol/L)” value was found to be 0.16 nmol/L. Moreover, the EC50 – broadly, the concentration giving half of the maximal effect – came to 2.3 nM in test [2] and 0.63 nM in test [3].

B2: humanized anti-hTfR antibody No. 3 (antibody, human IgG1, kappa)
heavy: not shown
light: DIVMTQTPLSLSVTPGQPASISCRSSQSLVHSNGNTYLHWYLQKPGQSPQLLIYKVSNRFSGVPDRFSGSGSGTDFTLKISRVEAEDVGVYYCSQSTHVPWTFGQGTKVEIKRTVAAPSVFIFPPSDEQLKSGTASVVCLLNNFYPREAKVQWKVDNALQSGNSQESVTEQDSKDSTYSLSSTLTLSKADYEKHKVYACEVTHQGLSSPVTKSFNRGEC
notes: IgG1; expressed in CHO-K1, purified on Protein A
With B2, in test [4], the Kd (usually the concentration at which binding is half-saturated) is 1.12 nM; the koff – broadly, the first-order rate constant of dissociation – was 0.000676 s⁻¹; the kon (in general, the second-order rate constant of association) worked out at 603000 M⁻¹ s⁻¹. In test [5], the Kd is below 0.001 nM, the koff is below 1e-07 s⁻¹ and the kon was determined as 1.19e+06 M⁻¹ s⁻¹. For the same molecule, in test [6], the half-maximal effective concentration (EC50) worked out at 0.25 nM. Also, the concentration giving a half-maximal response (EC50) in test [7] stood at 0.09 nM.

B3: hBDNF-anti-hTfR antibody 7 (other)
heavy: HSDPARRGELSVCDSISEWVTAADKKTAVDMSGGTVTVLEKVPVSKGQLKQYFYETKCNPMGYTKEGCRGIDKRHWNSQCRTTQSYVRALTMDSKKRIGWRFIRIDTSCVCTLTIKRGRGSGGGGSGGGGSGGGGSGGGGSGGGGSEVQLVQSGAEVKKPGESLKISCKGSGYSFTNYWLGWVRQMPGKGLEWMGDIYPGGDYPTYSEKFKVQVTISADKSISTAYLQWSSLKASDTAMYYCARSGNYDEVAYWGQGTLVTVSSASTKGPSVFPLAPSSKSTSGGTAALGCLVKDYFPEPVTVSWNSGALTSGVHTFPAVLQSSGLYSLSSVVTVPSSSLGTQTYICNVNHKPSNTKVDKKVEPKSCDKTHT
light: DIVMTQTPLSLSVTPGQPASISCRSSQSLVHSNGNTYLHWYLQKPGQSPQLLIYKVSNRFSGVPDRFSGSGSGTDFTLKISRVEAEDVGVYYCSQSTHVPWTFGQGTKVEIKRTVAAPSVFIFPPSDEQLKSGTASVVCLLNNFYPREAKVQWKVDNALQSGNSQESVTEQDSKDSTYSLSSTLTLSKADYEKHKVYACEVTHQGLSSPVTKSFNRGEC
Regarding B3, the “BDNF activity (TrkB agonistic EC50, nmol/L)” value in test [1] came to 0.23 nmol/L.
